Assay results taken from patent US20250135039A1, “INHIBITOR-RESISTANT MGMT MODIFICATIONS AND MODIFICATION OF MGMT-ENCODING NUCLEIC ACIDS” (Ensoma, Inc., priority 2022, published 2025).

System: U251 human glioblastoma cell line
Assay: in vitro FM-HCR assay of MGMT activity (mPlum O^6MeG reporter plasmid)
Format: cell-based
Conditions: for Reporter expression (%) mean, O^6BG: 100 μM O^6BG; for Reporter expression (%) mean, O^6BG / Reporter expression (%) mean, DMSO: U251 cells, flow cytometry 24 h after transfection, damaged/undamaged reporter, inversely related to MGMT activity; for Reporter expression (%) mean, DMSO: 0.1% DMSO; for MGMT activity (a.u.) DMSO / MGMT activity (% of WT) DMSO: DMSO condition; for MGMT activity (a.u.) DMSO / MGMT activity (a.u.) O^6BG: determined from percent reporter expression; for MGMT activity (% of WT) DMSO / MGMT activity (% of WT) O^6BG: relative to wild-type MGMT in same condition; for Relative MGMT activity (%): MGMT activity (a.u.) in O^6BG divided by DMSO x 100, higher values indicate resistance; for MGMT activity (a.u.) O^6BG / MGMT activity (% of WT) O^6BG: O^6BG condition; for Ratio percent reporter expression (O^6BG/DMSO): lower values indicate resistance to O^6BG; for O^6BG resistance relative to WT (%): percentage difference in relative MGMT activity between variant and wild-type MGMT
Text: The present Example includes, in part, an in vitro fluorescence multiplex host cell reactivation (FM-HCR) assay in which a reporter plasmid with O^6MeG-containing oligonucleotides is used. The oligonucleotides induce transcription errors that lead to expression of fluorescent mPlum protein. Functional MGMT will repair the O^6MeG sites and reduce mPlum expression. This represents a rapid and validated assay system to assess intracellular activity of MGMT. Further description of certain such assays is found in Nagel (2014 PNAS USA 111 (18): E1823-32, which is incorporated herein by reference.
The present Example uses an in vitro FM-HCR assay in which a reporter plasmid with 0° MeG-containing oligonucleotides is used to assay MGMT activity in cells. The O^6MeG-containing oligonucleotides induce transcription errors that lead to expression of fluorescent mPlum protein. Functional MGMT will repair the O'MeG sites and reduce mPlum expression. This represents a rapid and validated assay system to assess intracellular activity of MGMT. Further description of certain such assays is found in Nagel et al., 2014 PNAS USA 111 (18): E1823-32 and Piett et al., 2021 Nat. Protoc. 16 (9): 4265-4298, each of which is incorporated herein by reference.
The in vitro FM-HCR assay was performed using the U251 human glioblastoma cell line. The cells were cultured in DMEM with 10% FBS and passaged every three days.
To express MGMT variants in the cells, plasmids encoding each MGMT variant were designed and generated by either de novo synthesis or cloning into the pTwist EF1 Alpha Puro vector at the HindII-BamHI multiple cloning site. The pTwist EF1 Alpha Puro plasmid vector drives expression of the MGMT transcript from a human EF1-alpha promoter including intron 1 and an SV40 polyadenylation signal. Plasmids encoding the MGMT variants were purified using standard molecular biology techniques from E. coli with low endotoxins. Plasmids encoding wild-type MGMT or O^6BG-resistant MGMT^P140K were also designed and generated for use as controls.
To perform the in vitro FM-HCR assay, U251 cells were seeded in 12-well plates at a density of 50,000 cells per well in 1 mL culture media. The following day, the media was changed to 1 mL of culture media containing O^6BG (100 μM O^6BG and 0.1% DMSO final) or 0.1% DMSO; and the cells were transfected with 1,000 ng of a plasmid cocktail using Lipofectamine 3000 (ThermoFisher Scientific) at 1.8 μL Lipofectamine 3000 Reagent and 2 μL P3000 reagent in Opti-MEM medium (ThermoFisher Scientific). […] For the “undamaged” condition, the plasmid cocktail replaced the mPlum O^6MeG reporter plasmid with 100 ng of a plasmid expressing mPlum. The plasmid encoding BFP was used as an internal transfection control. For transfections where no MGMT encoding plasmid is used (no pMGMT), 250 ng of additional carrier plasmid was used to maintain a total DNA amount of 1,000 ng in each transfection. Four hours after transfection, the transfection medium was changed.
All transfected cells were analyzed by flow cytometry at 24-hours after transfection. Data was analyzed as previously described in Nagel et al., 2014 PNAS USA 111 (18): E1823-32 and Piett et al., 2021 Nat. Protoc. 16 (9): 4265-4298. For each condition, normalized reporter expression was determined by taking the product of the mPlum-positive cell count and the mean mPlum fluorescence intensity in mPlum-positive cells and dividing it by the product of the BFP-positive cell count and the mean BFP fluorescence intensity in BFP-positive cells. Next, for each MGMT variant, the percent reporter expression was determined by taking the normalized reporter expression in the “damaged” condition and dividing it by the normalized reporter expression in the “undamaged” condition, and then multiplying by 100 to obtain a percent value. […]

Molecule | Reporter expression (%) mean, O^6BG [%] | Reporter expression (%) mean, DMSO [%] | MGMT activity (a.u.) DMSO [a.u.] | MGMT activity (% of WT) DMSO | Relative MGMT activity (%) | MGMT activity (a.u.) O^6BG [a.u.] | MGMT activity (% of WT) O^6BG | Ratio percent reporter expression (O^6BG/DMSO) | O^6BG resistance relative to WT (%)
R135T: MGMT polypeptide with mutation R135T (protein) MDKDCEMKRTTLDSPLGKLELSGCEQGLHEIKLLGKGTSAADAVEVPAPAAVLGGPEPLMQCTAWLNAYFHQPEAIEEFPVPALHHPVFQQESFTRQVLWKLLKVVKFGEVISYQQLAALAGNPKAARAVGGAMTGNPVPILIPCHRVVCSSGAVGNYSGGLAVKEWLLAHEGHRLGKPGLGGSSGLAGAWLKGAGATSGSPPAGRN | 101.7 | 27.3 | 3.66 | 67.7 % of WT | 26.9 | 0.98 | 68.9 % of WT | 3.72 | 1.7
N137F: MGMT polypeptide with mutation N137F (protein) MDKDCEMKRTTLDSPLGKLELSGCEQGLHEIKLLGKGTSAADAVEVPAPAAVLGGPEPLMQCTAWLNAYFHQPEAIEEFPVPALHHPVFQQESFTRQVLWKLLKVVKFGEVISYQQLAALAGNPKAARAVGGAMRGFPVPILIPCHRVVCSSGAVGNYSGGLAVKEWLLAHEGHRLGKPGLGGSSGLAGAWLKGAGATSGSPPAGRN | 104.3 | 109.7 | 0.91 | 16.9 % of WT | 105.1 | 0.96 | 67.1 % of WT | 0.95 | 297.7
N137D: MGMT polypeptide with mutation N137D (protein) MDKDCEMKRTTLDSPLGKLELSGCEQGLHEIKLLGKGTSAADAVEVPAPAAVLGGPEPLMQCTAWLNAYFHQPEAIEEFPVPALHHPVFQQESFTRQVLWKLLKVVKFGEVISYQQLAALAGNPKAARAVGGAMRGDPVPILIPCHRVVCSSGAVGNYSGGLAVKEWLLAHEGHRLGKPGLGGSSGLAGAWLKGAGATSGSPPAGRN | 80.7 | 52.3 | 1.91 | 35.4 % of WT | 64.9 | 1.24 | 86.8 % of WT | 1.54 | 145.5
P140F: MGMT polypeptide with mutation P140F (protein) MDKDCEMKRTTLDSPLGKLELSGCEQGLHEIKLLGKGTSAADAVEVPAPAAVLGGPEPLMQCTAWLNAYFHQPEAIEEFPVPALHHPVFQQESFTRQVLWKLLKVVKFGEVISYQQLAALAGNPKAARAVGGAMRGNPVFILIPCHRVVCSSGAVGNYSGGLAVKEWLLAHEGHRLGKPGLGGSSGLAGAWLKGAGATSGSPPAGRN | 76.8 | 25.3 | 3.96 | 73.3 % of WT | 32.9 | 1.30 | 91.2 % of WT | 3.04 | 24.5
N137P: MGMT polypeptide with mutation N137P (protein) MDKDCEMKRTTLDSPLGKLELSGCEQGLHEIKLLGKGTSAADAVEVPAPAAVLGGPEPLMQCTAWLNAYFHQPEAIEEFPVPALHHPVFQQESFTRQVLWKLLKVVKFGEVISYQQLAALAGNPKAARAVGGAMRGPPVPILIPCHRVVCSSGAVGNYSGGLAVKEWLLAHEGHRLGKPGLGGSSGLAGAWLKGAGATSGSPPAGRN | 93.0 | 94.0 | 1.06 | 19.7 % of WT | 101.1 | 1.08 | 75.3 % of WT | 0.99 | 282.4
P140H: MGMT polypeptide with mutation P140H (protein) MDKDCEMKRTTLDSPLGKLELSGCEQGLHEIKLLGKGTSAADAVEVPAPAAVLGGPEPLMQCTAWLNAYFHQPEAIEEFPVPALHHPVFQQESFTRQVLWKLLKVVKFGEVISYQQLAALAGNPKAARAVGGAMRGNPVHILIPCHRVVCSSGAVGNYSGGLAVKEWLLAHEGHRLGKPGLGGSSGLAGAWLKGAGATSGSPPAGRN | 29.3 | 15.7 | 6.38 | 118.1 % of WT | 53.4 | 3.41 | 238.6 % of WT | 1.87 | 102.1
P138K: MGMT polypeptide with mutation P138K (protein) MDKDCEMKRTTLDSPLGKLELSGCEQGLHEIKLLGKGTSAADAVEVPAPAAVLGGPEPLMQCTAWLNAYFHQPEAIEEFPVPALHHPVFQQESFTRQVLWKLLKVVKFGEVISYQQLAALAGNPKAARAVGGAMRGNKVPILIPCHRVVCSSGAVGNYSGGLAVKEWLLAHEGHRLGKPGLGGSSGLAGAWLKGAGATSGSPPAGRN | 64.0 | 16.3 | 6.12 | 113.3 % of WT | 25.5 | 1.56 | 109.4 % of WT | 3.92 | −3.4
